“And” between values parts separate entries of the source, which are not always exact repeats. Equal values may be shown once. Read-outs that look alike come from different tables or passages of the source.
B1: Chlopsid FP I: bilirubin-inducible fluorescent fatty acid-binding protein from Kaupichthys hyoproroides, SEQ ID NO: 1 (protein)
chain: MFEDFLGTWKCIDSQNFGAYLAAIGAPPVLSERADATRPTVHFNRDGDKLSLKVEHGPPPLKDVLLSFKLGEEFDEHPTDGRKCKTLVTFEGDKLLYLQKWDGKETVVVREIRDGNVVATLSHEGVVALRVYKKVAGPTALE
modifications: Kaupichthys hyoproroides
B2: UnaG: bilirubin inducible fluorescent protein from Anguilla japonica, novel member of the FABP family (protein, UniProt P0DM59 1-139, looked up)
Bilirubin-inducible …: MVEKFVGTWKIADSHNFGEYLKAIGAPKELSDGGDATTPTLYISQKDGDKMTVKIENGPPTFLDTQVKFKLGEEFDEFPSDRRKGVKSVVNLVGEKLVYVQKWDGKETTYVREIKDGKLVVTLTMGDVVAVRSYRRATE
B3: Chlopsid FP II: bilirubin-inducible fluorescent fatty acid-binding protein from Kaupichthys n. sp., SEQ ID NO: 2 (protein)
chain: MFEDFLGTWECIDSQNFGAYLAAVGAPPVLSDRADATRPTVYFNRDGDKLSLKVEHGPPPLKDVILSFKLGEEFDEHPTDGRKCKTLVTFEGDKLLYLQKWDGKETVVVREIRDGNVVATLSHEGVVALRVYKKVAGPTA
modifications: Kaupichthys hyoproroides

Tests used:
[1] = Fluorescence excitation and emission spectra; format: physicochemical
Description: In Chlopsid FP I and Chlopsid FP II this amino acid is a histidine. This difference in amino acid sequence can potentially explain the fluorescence shift, due to an increase in the π conjugation of the system.
Fluorescence Spectroscopy: Fluorescence excitation and emission spectra were recorded using a F-7000 Hitachi Fluorescence Spectrometer.

[2] = Fluorescence quantum yield; format: physicochemical
Description: The fluorescence quantum yield of Chlopsid FP I was determined to be 0.47. […] These values are close to the reported quantum yield for UnaG of 0.51 (Table 1). Two prolines in the Gly-Pro-Pro sequence motif were mutated to glycine.

HEK293 cells = experiment: Expression of Chlopsid FP I in HEK293 cells, single and two-photon imaging; format: cell-based
Description: Expression in Mammalian Cells: Chlopsid FP I was expressed in mammalian cells (HEK293) without the addition of bilirubin. […] The two-photon excitation was fairly flat from 700-1000 nm with a peak at 860 nm and an unusual dip at 840 nm.
Expression of Chlopsid FP I in HEK293 Cells: A pCS2+vector was used for cloning of Chlopsid FP I for expression in HEK293 cells (ATCC, USA) using Kpn-Sphl cloning sites. Plasmids were prepared by Genscript USA, Inc. The expression was driven in HEK293 cells (ATCC, USA) by CMV promotor. The HEK293 cell line was maintained in Dulbecco's Modified Eagle Medium (High Glucose) (DMEM) (Invitrogen, USA), supplemented with 10% fetal bovine serum (FBS) (Sigma-Aldrich, USA), in a 37° C. incubator with 5% CO2. Transient transfection was performed using 2 μg of DNA per 35 mm dish and 5 μg of Lipofectamine 2000 (Invitrogen, N.Y.). Cells were imaged on a custom-made 2-photon microscope using a Chameleon Ti-Sapphire laser (Coherent Inc, CA) and water immersion 20×/0.95 N.A. objective (Olympus, Japan). Images were taken using 850 nm laser light with power of 15 mW at the objective.

mammalian cells = experiment: Fluorescence of expressed protein in mammalian cells upon addition of exogenous bilirubin; format: cell-based
From the text: (§1) Hayashi and Toda reported that Anguilla japonica (heavily farmed in Japanese aquaculture and a historical staple of Japanese cuisine) was weakly green fluorescent. They purified a fluorescent protein from A. japonica muscle tissue and isolated and sequenced several peptide fragments. […] Then in 2013, Kumagai et al., published a full characterization of the fluorescent protein from A. japonica. […] The Kaupichthys hyoproroides and Kaupichthys n. sp. data was re-examined and found a single transcript in each of the two species' transcriptomes that encoded an FABP including the Gly-Pro-Pro insertion. […] These proteins, termed Chlopsid FP I and Chlopsid FP II, are orthologs of UnaG (FIG. 1). FIG. 1 depicts sequence alignment of fluorescent FABPs from eels with a non-fluorscent FABP from Kaupichthys hyoproroides (Chlopsid NFP) and human brain FABP-7. Areas of homology are identified with solid lines boxes. The GPP sequence motif is identified with a dotted lined box.

E. coli = experiment: Fluorescence of expressed protein in E. coli upon addition of exogenous bilirubin; format: cell-based
From the text: as §1
Protein Expression and Purification. Candidate ORFs were selected from eel transcriptome data containing an unusual sequence motif (Gly-Pro-Pro) on a loop between two beta sheets in the FABP sequence. […] Protein concentration was determined by A280 measurements, using calculated extinction coefficients of 15,300 M^−1 cm^−1 for Chlopsid FP I, and 16,600 M^−1 cm^−1 for Chlopsid FP II. […]

[3] = reference fluorescent protein; cited from earlier work
[4] = reported value for reference fluorescent protein; cited from earlier work

Row | Molecule | Ex/Em maxima: emission maximum [1] | Ex/Em maxima: excitation maximum [1] | Fluorescence quantum yield [2] | Two-photon excitation dip (HEK293 cells; HEK293) [nm] | Two-photon excitation peak (HEK293 cells; HEK293, excitation fairly flat from 700-1000 nm) [nm] | Fluorescence of expressing cells (HEK293 cells; HEK293, without the addition of bilirubin, single and two-photon imaging) | Fluorescence upon addition of exogenous bilirubin (mammalian cells) | Fluorescence upon addition of exogenous bilirubin (E. coli) | Ex/Em maxima: emission maximum [3] | Ex/Em maxima: excitation maximum [3] | Fluorescence quantum yield [4]
1 | B1 | 527 nm and 524 nm | 498 nm and 490 nm | 0.47 | 840 | 860 | bright fluorescence | strong green fluorescence | strong green fluorescence |  |  | 
2 | B2 |  |  |  |  |  |  |  |  | 523 nm and 530 nm | 489 nm and 498 nm | 0.51
3 | B3 | 527 nm and 524 nm | 498 nm and 490 nm | 0.37 |  |  |  | strong green fluorescence | strong green fluorescence |  |  | 

— patent US9952227B2, “Method for detecting bilirubin” (Research Foundation of the City University of New York, priority 2015, dated 2018)
